Target: Full-length recombinant human SIRT1 (human) (UniProt Q96EB6)
Sequence of UniProt Q96EB6 (Q96EB6 whole entry): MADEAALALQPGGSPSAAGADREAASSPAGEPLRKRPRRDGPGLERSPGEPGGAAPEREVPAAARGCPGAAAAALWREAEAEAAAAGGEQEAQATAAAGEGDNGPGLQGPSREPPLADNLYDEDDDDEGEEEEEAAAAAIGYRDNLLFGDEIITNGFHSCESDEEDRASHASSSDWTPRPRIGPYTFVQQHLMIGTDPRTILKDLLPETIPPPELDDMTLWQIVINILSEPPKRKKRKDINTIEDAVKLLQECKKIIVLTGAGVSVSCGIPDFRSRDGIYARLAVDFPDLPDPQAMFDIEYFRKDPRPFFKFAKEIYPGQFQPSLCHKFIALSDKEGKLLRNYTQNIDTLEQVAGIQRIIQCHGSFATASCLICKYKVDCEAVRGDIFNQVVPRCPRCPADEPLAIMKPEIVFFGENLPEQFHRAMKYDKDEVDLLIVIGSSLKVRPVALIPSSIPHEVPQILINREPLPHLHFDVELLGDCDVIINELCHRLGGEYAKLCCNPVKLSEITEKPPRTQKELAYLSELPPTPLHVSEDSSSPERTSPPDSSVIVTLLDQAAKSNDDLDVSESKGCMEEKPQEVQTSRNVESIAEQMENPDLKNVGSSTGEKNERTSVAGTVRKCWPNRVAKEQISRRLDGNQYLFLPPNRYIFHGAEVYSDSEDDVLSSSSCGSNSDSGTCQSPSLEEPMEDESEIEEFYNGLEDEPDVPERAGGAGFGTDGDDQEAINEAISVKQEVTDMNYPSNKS

## H4K16Ac synthetic peptide
  Km of the peptide substrate in SIRT1-catalysed deacetylation (HPLC assay, 500 uM NAD+, 0.5 uM SIRT1, 100 mM phosphate pH 7.5, 37 °C): 46.4 µM

— paper PMC7922766
